From PMC12701072, “DNA Wrapping by a tetrameric bacterial histone”

Columns and labels:
[1] = biological target: HLp from Leptospira perolatii (Leptospira perolatii); assay: crystal structure; HLp-DNA_1: HLp co-crystallized with the 30-bp-GC40 DNA fragment, 2.10 Å; dimer in the asymmetric unit, tetramer by crystallographic symmetry
[2] = biological target: HLp from Leptospira perolatii (Leptospira perolatii); assay: crystal structure; DNA-free HLp, 1.30 Å, molecular replacement; dimer in the asymmetric unit, tetramer by crystallographic symmetry
[3] = biological target: HLp from Leptospira perolatii (Leptospira perolatii); assay: SEC-MALS; HLp alone; Superdex 75 Increase 10/300 GL, 25 mM Tris, 50 mM NaCl, 50 mM KCl, pH 7.5; samples incubated at 37 °C for 10 min; oligomer in solution
[4] = biological target: HLp from Leptospira perolatii (Leptospira perolatii); assay: SEC-MALS; HLp incubated with the 30-bp-GC40 DNA fragment at a protein-to-DNA molar ratio of 2:1, 37 °C for 10 min; Superdex 75 Increase 10/300 GL, 25 mM Tris, 50 mM NaCl, 50 mM KCl, pH 7.5
[5] = biological target: HLp from Leptospira perolatii (Leptospira perolatii); assay: crystal structure; HLp-DNA_2: HLp co-crystallized with the 30-bp-GC40 DNA fragment, 1.90 Å; monomer in the asymmetric unit, tetramer by crystallographic symmetry
HLp [6] = biological target: T1, HLp (Leptospira perolatii, UniProt A0A2M9ZN55 1-63); assay: SEC-MALS; complex 69.2 +/- 5.7 kDa: one tetramer with two duplexes; EMSA: 25 mM Tris pH 8.0, 50 mM NaCl, 50 mM KCl, 37 C 10 min; MST: 20 mM Tris pH 8.0, 150 mM NaCl, measured at 25 C (HLp 10 nM DNA, HMfB 20 nM DNA); conditions: protein: recombinant; tags: N-terminal His6, cleaved with TEV protease; chain copies: 4; blunt
T1 sequence: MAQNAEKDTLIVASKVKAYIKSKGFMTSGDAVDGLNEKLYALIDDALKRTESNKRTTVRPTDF

HLp [7] = biological target: T1, HLp; assay: MST; 20 mM Tris pH 8.0, 150 mM NaCl; EMSA: 25 mM Tris pH 8.0, 50 mM NaCl, 50 mM KCl, 37 C 10 min; MST: 20 mM Tris pH 8.0, 150 mM NaCl, measured at 25 C (HLp 10 nM DNA, HMfB 20 nM DNA); conditions: protein: recombinant; tags: N-terminal His6, cleaved with TEV protease; chain copies: 4; label: 5'-Cy5 on strand 1; blunt
HMfB = HMfB (Methanothermus fervidus, UniProt P19267 1-69); assay: MST; EMSA: 25 mM Tris pH 8.0, 50 mM NaCl, 50 mM KCl, 37 C 10 min; MST: 20 mM Tris pH 8.0, 150 mM NaCl, measured at 25 C (HLp 10 nM DNA, HMfB 20 nM DNA); conditions: protein: recombinant; chain copies: 4; label: 5'-Cy5 on strand 1; blunt
Sequence of HMfB (P19267 whole entry): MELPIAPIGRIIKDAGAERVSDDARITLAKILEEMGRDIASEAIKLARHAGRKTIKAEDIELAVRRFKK

Question: Which results are given for “HLp from Leptospira perolatii (natural protein)”?
Answer: stoichiometry N [1]: 4; stoichiometry N [2]: 4; stoichiometry N [3]: 4; stoichiometry N [4]: 4; stoichiometry N [5]: 4

B1: 30-bp-GC40 (dsDNA)
DNA 1: TTTAAAGCCGTTTAAAGCCGTTTAAAGCCG
DNA 2: CGGCTTTAAACGGCTTTAAACGGCTTTAAA
Question: Does B1 bind (HLp [6])?
Answer: Result: binds

B2: 80-bp-GC40 [Cy5] (dsDNA)
DNA 1: TTTAAAGCCGTTTAAAGCCGTTTAAAGCCGTTTAAAGCCGTTTAAAGCCGTTTAAAGCCGTTTAAAGCCGTTTAAAGCCG
DNA 2: CGGCTTTAAACGGCTTTAAACGGCTTTAAACGGCTTTAAACGGCTTTAAACGGCTTTAAACGGCTTTAAACGGCTTTAAA
Question: For B2, which Kd (HLp [7]) is on record?
Answer: Its Kd is 1240 ± 140 nM.

Question: And the Kd (HMfB)?
Answer: Its Kd is 310 ± 80 nM.

B3: 80-bp DNA [Cy5] (dsDNA)
DNA 1: CCGTACTGTCGTCTGCGGCCTTTGATTATCAATTAAAGCGTTCTACGGCGTTTTTGATCGCTCAACGTGCGGAGCTAGAT
DNA 2: ATCTAGCTCCGCACGTTGAGCGATCAAAAACGCCGTAGAACGCTTTAATTGATAATCAAAGGCCGCAGACGACAGTACGG
Question: Which Kd (HLp [7]) does the source give for B3 here?
Answer: Its Kd is 3180 ± 1060 nM.

Question: What about the Kd (HMfB) of the same molecule?
Answer: The Kd was 580 ± 130 nM.
